This note sets out measurements from PMC4250932.

By Km is commonly meant the concentration of substrate that gives half-maximal velocity.

The data set has as its system NC(=O)C1=CN([C@@H]2O[C@H](COP(=O)(O)OP(=O)(O)OC[C@H]3O[C@@H](n4cnc5c(N)ncnc54)[C@H](OP(=O)(O)O)[C@@H]3O)[C@@H](O)[C@H]2O)C=CC1. Put plainly: purified protein. The settings on record: varied: cofactor.

Regarding “RmlD (dTDP-6-deoxy-L-lyxo-4-hexulose reductase) (Mycobacterium tuberculosis H37Rv)”, the Km was 12.5 µM.
